# Test results reported in patent publication US20230036041A1, “SORTILIN BINDING CONJUGATE COMPOUNDS, COMPOSITIONS AND USES THEREOF FOR TREATING CANCER” (THERATECHNOLOGIES INC., priority 2019, published 2023).
# Non-standard residues stand in square brackets, D forms with d. No end group written: not given here. Nle = CCCC[C@H](N)C(=O)O
# Biological target: T1, sortilin (Homo sapiens, UniProt Q99523)
# T1 construct: endogenous in cells
# T1 sequence (Q99523 78-831): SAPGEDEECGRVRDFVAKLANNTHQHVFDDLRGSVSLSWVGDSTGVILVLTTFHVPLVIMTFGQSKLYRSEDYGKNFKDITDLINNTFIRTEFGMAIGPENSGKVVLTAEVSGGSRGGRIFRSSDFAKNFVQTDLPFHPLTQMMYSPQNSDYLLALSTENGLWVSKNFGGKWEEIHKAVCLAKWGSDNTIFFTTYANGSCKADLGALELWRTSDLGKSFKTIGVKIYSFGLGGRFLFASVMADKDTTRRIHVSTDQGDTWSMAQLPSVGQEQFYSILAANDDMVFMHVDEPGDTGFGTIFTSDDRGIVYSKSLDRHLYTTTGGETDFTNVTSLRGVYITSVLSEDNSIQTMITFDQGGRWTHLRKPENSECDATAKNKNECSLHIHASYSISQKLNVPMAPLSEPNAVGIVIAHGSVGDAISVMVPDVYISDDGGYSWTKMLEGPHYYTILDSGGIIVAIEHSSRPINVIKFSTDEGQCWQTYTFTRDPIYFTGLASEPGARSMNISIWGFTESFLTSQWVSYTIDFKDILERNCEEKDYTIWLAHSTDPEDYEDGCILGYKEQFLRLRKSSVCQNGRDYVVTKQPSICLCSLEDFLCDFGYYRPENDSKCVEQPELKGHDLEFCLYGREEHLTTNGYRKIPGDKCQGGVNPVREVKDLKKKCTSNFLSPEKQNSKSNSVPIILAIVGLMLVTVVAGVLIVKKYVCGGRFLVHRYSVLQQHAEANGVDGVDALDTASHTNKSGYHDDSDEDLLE
# Assay: uptake of the peptide upon sortilin siRNA
# Format: cell-based
# Conditions: FIG. 6
# Method: In vitro testing of the TH19P01 peptide and the TH1902 conjugate compound was conducted.
substance,measurement,value
Acetyl-GVRAKAGVRN(Nle)FKSESY (Ac-GVRAKAGVRN[Nle]FKSESY) [TH19P01],uptake of the peptide,inhibited upon sortilin siRNA
